According to article PMC7954794, “Protein context shapes the specificity of SH3 domain-mediated interactions in vivo” (Nature Communications, 2021):

B1: LSB3 (protein)
chain: MGINNPIPRSLKSETKKAAKILASFVKPNQVFGADQVIPPDVLKRAKGLAIITILKAGFLFSGRAGSGVIVARLKDGTWSAPSAIAMAGAGAGGMVGIELTDFVFILNTQDAVKSFSEFGTITLGGNVSVSAGPLGRSAEAAASASAGGVAAVFAYSKSKGLFAGVSVEGSAIIERREANRKFYGDNCTAKMILSGRIRPPPAVDPLFRVLESRAFNYRPSNGGRGSFDDDEDDYYDDDDYYNDIPSSFSSTDASSTRPNTRSTRRRAQSGSRYTFDDDDDDDDYGTGYSRNSRLAPTNSGGSGGKLDDPSGASSYYASHRRSGTAQSRARSSRNRWADDEYDDYDDDYESGYRRGNGRDRTKDREVDDLSNRFSKSRISSASTPQTSQGRFTAPTSPSTSSPKAVALYSFAGEESGDLPFRKGDVITILKKSDSQNDWWTGRVNGREGIFPANYVELV
modifications: left off: DHFR F[3], C-terminal, kept
B2: LSB1 (protein, UniProt P53281 2-241, looked up)
LAS seventeen-binding protein …: SASLVNRSLKNIRNELEFLKESNVISGDIFELINSKLPEKWDGNQRSPQNADTEEYVEALYDFEAQQDGDLSLKTGDKIQVLEKISPDWYRGKSNNKIGIFPANYVKPAFTRSASPKSAEAASSSTVSRPSVPPPSYEPAASQYPSQQVSAPYAPPAGYMQAPPPQQQQAPLPYPPPFTNYYQQPQQQYAPPSQQAPVEAQPQQSSGASSAFKSFGSKLGNAAIFGAGSAIGSDIVNSIF
B3: HSE1 (protein, UniProt P38753 2-452, looked up)
Class E vacuolar …: SSSAIKIRNALLKATDPKLRSDNWQYILDVCDLVKEDPEDNGQEVMSLIEKRLEQQDANVILRTLSLTVSLAENCGSRLRQEISSKNFTSLLYALIESHSVHITLKKAVTDVVKQLSDSFKDDPSLRAMGDLYDKIKRKAPYLVQPNVPEKHNMSTQADNSDDEELQKALKMSLFEYEKQKKLQEQEKESAEVLPQQQQQHQQQNQAPAHKIPAQTVVRRVRALYDLTTNEPDELSFRKGDVITVLEQVYRDWWKGALRGNMGIFPLNYVTPIVEPSKEEIEKEKNKEAIVFSQKTTIDQLHNSLNAASKTGNSNEVLQDPHIGDMYGSVTPLRPQVTRMLGKYAKEKEDMLSLRQVLANAERSYNQLMDRAANAHISPPVPGPALYAGMTHANNTPVMPPQRQSYQSNEYSPYPSNLPIQHPTNSANNTPQYGYDLGYSVVSQPPPGYEQ

Test system: growth of yeast strains under 51 stress conditions
Test: Growth assays in 51 stress conditions (Fig. 1E-F, S2D, S5B)
Format: cell-based, Saccharomyces cerevisiae
Design: key to Growth (Fig. S2D) / growth of ABP1 SH3-swapped strains in stress condition: log2 colony size, average of median per strain (growth score)
Settings: Bathophenanthroline.0.1uM; ABP1 SH3-swapped strains
Procedure, shortened: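 Yeast WT, SH3-deleted, KO, SH3-swapped and SH3-shuffled strains pinned in 1536 format, 12 replicates each; pregrown on YPD 2 days at 30 °C, then replicated onto 51 media at 37 °C and imaged every 2 h. Growth score = mean of per-plate median log2 colony size at 74 h.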

Molecule | Growth (Fig. S2D)
B1 | 10.8613
B2 | 10.7989
B3 | 10.8649

Same assay, conditions: Bathophenanthroline.10uM; ABP1 SH3-swapped strains

Molecule | Growth (Fig. S2D)
B1 | 10.7004
B2 | 10.6305
B3 | 10.6324

Same assay, conditions: Bathophenanthroline.1uM; ABP1 SH3-swapped strains

Molecule | Growth (Fig. S2D)
B1 | 10.8044
B2 | 10.7471
B3 | 10.7994

Same assay, conditions: CaCl2.100mM; ABP1 SH3-swapped strains

Molecule | Growth (Fig. S2D)
B1 | 10.8415
B2 | 10.8093
B3 | 10.826

Same assay, conditions: CaCl2.250mM; ABP1 SH3-swapped strains

Molecule | Growth (Fig. S2D)
B1 | 10.752
B2 | 10.7989
B3 | 10.8072

Same assay, conditions: CaCl2.500mM; ABP1 SH3-swapped strains

Molecule | Growth (Fig. S2D)
B1 | 10.2861
B2 | 10.2904
B3 | 10.2874

Same assay, conditions: Caffein.10mM; ABP1 SH3-swapped strains

Molecule | Growth (Fig. S2D)
B1 | 10.1331
B2 | 10.1077
B3 | 10.0363

Same assay, conditions: Caffein.2mM; ABP1 SH3-swapped strains

Molecule | Growth (Fig. S2D)
B1 | 11.0359
B2 | 10.9656
B3 | 11.0184

Same assay, conditions: CdCl2.100uM; ABP1 SH3-swapped strains

Molecule | Growth (Fig. S2D)
B1 | 9.517
B2 | 9.41
B3 | 9.591

Same assay, conditions: CdCl2.10uM; ABP1 SH3-swapped strains

Molecule | Growth (Fig. S2D)
B1 | 10.8992
B2 | 10.8732
B3 | 10.9135

Same assay, conditions: CdCl2.50uM; ABP1 SH3-swapped strains

Molecule | Growth (Fig. S2D)
B1 | 9.9
B2 | 9.85
B3 | 9.882

Same assay, conditions: CuSO4.1mM; ABP1 SH3-swapped strains

Molecule | Growth (Fig. S2D)
B1 | 10.501
B2 | 10.4529
B3 | 10.4158

Same assay, conditions: CuSO4.5mM; ABP1 SH3-swapped strains

Molecule | Growth (Fig. S2D)
B1 | 7.988
B2 | 7.9447
B3 | 7.9665

Same assay, conditions: Cycloheximide.0.05.uM; ABP1 SH3-swapped strains

Molecule | Growth (Fig. S2D)
B1 | 11.1308
B2 | 11.0938
B3 | 11.0571

Same assay, conditions: Cycloheximide.0.2.uM; ABP1 SH3-swapped strains

Molecule | Growth (Fig. S2D)
B1 | 10.6758
B2 | 10.6171
B3 | 10.6529

Same assay, conditions: Cycloheximide.0.5.uM; ABP1 SH3-swapped strains

Molecule | Growth (Fig. S2D)
B1 | 10.143
B2 | 10.0964
B3 | 10.099

Same assay, conditions: DMSO.2.; ABP1 SH3-swapped strains

Molecule | Growth (Fig. S2D)
B1 | 11.0244
B2 | 11.0559
B3 | 11.0462

Same assay, conditions: DMSO.6.; ABP1 SH3-swapped strains

Molecule | Growth (Fig. S2D)
B1 | 9.802
B2 | 9.9059
B3 | 9.883

Same assay, conditions: DMSO.8.; ABP1 SH3-swapped strains

Molecule | Growth (Fig. S2D)
B1 | 9.136
B2 | 9.2023
B3 | 9.238

Same assay, conditions: Ethanol.2.; ABP1 SH3-swapped strains

Molecule | Growth (Fig. S2D)
B1 | 10.7759
B2 | 10.7659
B3 | 10.7698

Same assay, conditions: Ethanol.6.; ABP1 SH3-swapped strains

Molecule | Growth (Fig. S2D)
B1 | 10.3185
B2 | 10.2982
B3 | 10.2684

Same assay, conditions: Ethanol.8.; ABP1 SH3-swapped strains

Molecule | Growth (Fig. S2D)
B1 | 10.0689
B2 | 10.0154
B3 | 10.106

Same assay, conditions: Galactose.2.; ABP1 SH3-swapped strains

Molecule | Growth (Fig. S2D)
B1 | 10.7876
B2 | 10.7736
B3 | 10.7486

Same assay, conditions: Glycerol.2.; ABP1 SH3-swapped strains

Molecule | Growth (Fig. S2D)
B1 | 9.905
B2 | 9.808
B3 | 9.782

Same assay, conditions: Hydroxyurea.25mM; ABP1 SH3-swapped strains

Molecule | Growth (Fig. S2D)
B1 | 10.8417
B2 | 10.7374
B3 | 10.7604

Same assay, conditions: Hygromycin.190uM; ABP1 SH3-swapped strains

Molecule | Growth (Fig. S2D)
B1 | 11
B2 | 11.0084
B3 | 10.981

Same assay, conditions: Hygromycin.19uM; ABP1 SH3-swapped strains

Molecule | Growth (Fig. S2D)
B1 | 10.9944
B2 | 10.9924
B3 | 10.9309

Same assay, conditions: Hygromycin.95uM; ABP1 SH3-swapped strains

Molecule | Growth (Fig. S2D)
B1 | 11.0899
B2 | 10.9928
B3 | 11.0429

Same assay, conditions: MMS.0.004.; ABP1 SH3-swapped strains

Molecule | Growth (Fig. S2D)
B1 | 10.9826
B2 | 10.965
B3 | 11.0045

Same assay, conditions: MMS.0.02.; ABP1 SH3-swapped strains

Molecule | Growth (Fig. S2D)
B1 | 10.7326
B2 | 10.7457
B3 | 10.6778

Same assay, conditions: MMS.0.04.; ABP1 SH3-swapped strains

Molecule | Growth (Fig. S2D)
B1 | 10.0186
B2 | 10.0868
B3 | 10.0151

Same assay, conditions: Menadione.100uM; ABP1 SH3-swapped strains

Molecule | Growth (Fig. S2D)
B1 | 10.5511
B2 | 10.5379
B3 | 10.5782

Same assay, conditions: Menadione.200uM; ABP1 SH3-swapped strains

Molecule | Growth (Fig. S2D)
B1 | 10.5189
B2 | 10.4102
B3 | 10.4179

Same assay, conditions: Menadione.50uM; ABP1 SH3-swapped strains

Molecule | Growth (Fig. S2D)
B1 | 10.8398
B2 | 10.7973
B3 | 10.792

Same assay, conditions: NaCl.0.25M; ABP1 SH3-swapped strains

Molecule | Growth (Fig. S2D)
B1 | 10.7826
B2 | 10.8176
B3 | 10.7546

Same assay, conditions: NaCl.1M; ABP1 SH3-swapped strains

Molecule | Growth (Fig. S2D)
B1 | 9.561
B2 | 9.837
B3 | 9.884

Same assay, conditions: Nitroquinoline.10uM; ABP1 SH3-swapped strains

Molecule | Growth (Fig. S2D)
B1 | 10.7432
B2 | 10.6531
B3 | 10.6974

Same assay, conditions: Nitroquinoline.50uM; ABP1 SH3-swapped strains

Molecule | Growth (Fig. S2D)
B1 | 10.6203
B2 | 10.6066
B3 | 10.5671

Same assay, conditions: Nystatin.0.01uM; ABP1 SH3-swapped strains

Molecule | Growth (Fig. S2D)
B1 | 11.0314
B2 | 10.9737
B3 | 11.0224

Same assay, conditions: Nystatin.0.1uM; ABP1 SH3-swapped strains

Molecule | Growth (Fig. S2D)
B1 | 11.0473
B2 | 10.9631
B3 | 11.0326

Same assay, conditions: Raffinose.2.; ABP1 SH3-swapped strains

Molecule | Growth (Fig. S2D)
B1 | 11.0154
B2 | 11.0015
B3 | 11.0272

Same assay, conditions: Rapamycin.10nM; ABP1 SH3-swapped strains

Molecule | Growth (Fig. S2D)
B1 | 9.815
B2 | 9.7845
B3 | 9.925

Same assay, conditions: Rapamycin.50nM; ABP1 SH3-swapped strains

Molecule | Growth (Fig. S2D)
B1 | 9.462
B2 | 9.381
B3 | 9.396

Same assay, conditions: SC.pH3; ABP1 SH3-swapped strains

Molecule | Growth (Fig. S2D)
B1 | 10.4429
B2 | 10.3983
B3 | 10.4058

Same assay, conditions: SC.pH6; ABP1 SH3-swapped strains

Molecule | Growth (Fig. S2D)
B1 | 11.0914
B2 | 10.9866
B3 | 10.9649

Same assay, conditions: SDS.0.01.; ABP1 SH3-swapped strains

Molecule | Growth (Fig. S2D)
B1 | 10.9846
B2 | 10.9788
B3 | 10.9823

Same assay, conditions: SDS.0.02.; ABP1 SH3-swapped strains

Molecule | Growth (Fig. S2D)
B1 | 11.0384
B2 | 10.9881
B3 | 10.9972

Same assay, conditions: SDS.0.05.; ABP1 SH3-swapped strains

Molecule | Growth (Fig. S2D)
B1 | 10.8514
B2 | 10.872
B3 | 10.8418

Same assay, conditions: Sorbitol.10mM; ABP1 SH3-swapped strains

Molecule | Growth (Fig. S2D)
B1 | 10.9664
B2 | 11.0061
B3 | 11.0121

Same assay, conditions: Sorbitol.1mM; ABP1 SH3-swapped strains

Molecule | Growth (Fig. S2D)
B1 | 11.0248
B2 | 11.049
B3 | 11.0602

Same assay, conditions: Sorbitol.5mM; ABP1 SH3-swapped strains

Molecule | Growth (Fig. S2D)
B1 | 10.914
B2 | 10.9179
B3 | 10.8937
